This data set is described as follows: self-splicing fitness, log relative to wild type (ln ratio); higher = more splicing; Tetrahymena group I intron in knt gene, E. coli kanamycin selection, DiMSum; sequences stand for … in CUCUCU…GGAGGGAAAAGUUAUCAGGCAUGCACCUGGUAGCUAGUCUUUAAACCAAUAGAUUGCAUCGGUUUAAAAGGCAAGACCGUCAAAUUGCGGGAAAGGGGUCAACAGCCGUUCAGUACCAAGUCUCAGGGGAAACUUUGAGAUGGCCUUGCAAAGGGUAUGGUAAUAAGCUGACGGACAUGGUCCUAACCACGCAGCCAAGUCCUAAGUCAACAGAUCUUCUGUUGAUAUGGAUGCAGUUCACAGACUAAAUGUCGGUCGGGGAAGAUGUAUUCUUCUCAUAAGAUAUAGUCGGACCUCUCCUUAAUGGGAGCUAGCGGAUGAAGUGAUGCAACACUGGAGCCGCUGGGAACUAAUUUGUAUGCGAAAGUAUAUUGAUUAGUUUUGGAGUACUCGUGGUCG
In a few lines: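 Six replicate transformations of E. coli BL21(DE3) with a pET-22b(+) library were grown overnight at 37°C or 30°C. The library randomised all eight P1ex-region intron nucleotides, the intron lying in the knt kanamycin-resistance gene, and plates were LB agar with or without 25 μg/mL kanamycin plus 100 μg/mL carbenicillin, 50 μM IPTG and 0.2% rhamnose. Pooled colonies were amplicon-sequenced on an Illumina HiSeq 2500, and fitness is the DiMSum error-weighted combination of wild-type-normalised replicate fold changes, kanamycin versus none.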

± gives the uncertainty stated by the source.

In the case of CCCGAGCAAUAUUACGUUUU, the “self-splicing fitness (ln)” value is -4.01 ± 0.33 (30 °C) and -2.01 ± 0.23 (37 °C). Take AAGAAGCAAUAUUACGUUAU: the “self-splicing fitness (ln)” value was -3.52 ± 0.14 (30 °C) and -1.88 ± 0.15 (37 °C). Turning to UCUUAGCAAUAUUACGCUAU, the “self-splicing fitness (ln)” value was -4.16 ± 0.25 (30 °C) and -2.03 ± 0.18 (37 °C). As to CACGAGCAAUAUUACGAAAG, the “self-splicing fitness (ln)” value runs as follows: (30 °C) -3.34 ± 0.3; (37 °C) -2.22 ± 0.36. For GGAUAGCAAUAUUACGGACU the same measures were -0.129 ± 0.14 and -0.134 ± 0.19. In the case of GGCAAGCAAUAUUACGACUC, the “self-splicing fitness (ln)” value (30 °C) was -0.319 ± 0.15 and the “self-splicing fitness (ln)” value (37 °C) is 0.265 ± 0.17. As for UGGAAGCAAUAUUACGUAGA, the “self-splicing fitness (ln)” value is, setting by setting: (30 °C) -2.06 ± 0.13; (37 °C) -1.01 ± 0.13. For UUACAGCAAUAUUACGUUGU the same measures were -2.98 ± 0.13 and -2.57 ± 0.16. In the case of CACAAGCAAUAUUACGAGAU, the “self-splicing fitness (ln)” value (30 °C) was -3.28 ± 0.1 and the “self-splicing fitness (ln)” value (37 °C) is -2.74 ± 0.12.

Consider UGGGAGCAAUAUUACGAUCC, for which the “self-splicing fitness (ln)” value (30 °C) was -1.41 ± 0.39.

With AUCGAGCAAUAUUACGAGUA, the “self-splicing fitness (ln)” value runs as follows: (30 °C) -3.25 ± 0.41; (37 °C) -1.58 ± 0.28.

Take CGGGAGCAAUAUUACGGGUU: the “self-splicing fitness (ln)” value runs as follows: (30 °C) -2.34 ± 0.32; (37 °C) -2.53 ± 0.26. Consider CACAAGCAAUAUUACGCAUA, for which the “self-splicing fitness (ln)” value is -3.87 ± 0.19 (30 °C) and -1.12 ± 0.11 (37 °C). AAGAAGCAAUAUUACGAGAC: the “self-splicing fitness (ln)” value was -4.15 ± 0.29 (30 °C) and -2.85 ± 0.25 (37 °C). As to ACCCAGCAAUAUUACGCAUU, the “self-splicing fitness (ln)” value reads like this: (30 °C) -0.546 ± 0.043; (37 °C) 0.216 ± 0.061. On the same counts, the results for ACCCAGCAAUAUUACGGGUG are -2.14 ± 0.061 and -0.937 ± 0.058. On the same counts, the results for GCGGAGCAAUAUUACGCACU are -2.62 ± 0.14 and -2.79 ± 0.18. For the sequence UAAAAGCAAUAUUACGCUUG, the “self-splicing fitness (ln)” value (30 °C) is -1.9 ± 0.12 and the “self-splicing fitness (ln)” value (37 °C) was -0.981 ± 0.14. For the sequence UAACAGCAAUAUUACGGAUC, the “self-splicing fitness (ln)” value (30 °C) was -3.92 ± 0.22 and the “self-splicing fitness (ln)” value (37 °C) was -2.17 ± 0.15. On to UGGGAGCAAUAUUACGGUCA, for which the “self-splicing fitness (ln)” value is, setting by setting: (30 °C) -0.375 ± 0.12; (37 °C) -0.291 ± 0.14. Turning to AACCAGCAAUAUUACGCAUU, the “self-splicing fitness (ln)” value is, setting by setting: (30 °C) -1.58 ± 0.068; (37 °C) 0.096 ± 0.086.

Consider CUCUAGCAAUAUUACGACUU, for which the “self-splicing fitness (ln)” value (37 °C) is -3.23 ± 0.31.

In the case of CCCGAGCAAUAUUACGUCAA, the “self-splicing fitness (ln)” value (30 °C) is -3.36 ± 0.2 and the “self-splicing fitness (ln)” value (37 °C) is -3.09 ± 0.2. For UAAAAGCAAUAUUACGUGUU the same measures were -4.13 ± 0.15 and -2.63 ± 0.14. As for CGCCAGCAAUAUUACGUCGU, the “self-splicing fitness (ln)” value (30 °C) was -3.29 ± 0.15 and the “self-splicing fitness (ln)” value (37 °C) was -2.35 ± 0.16. For the sequence GACCAGCAAUAUUACGAACG, the “self-splicing fitness (ln)” value is, setting by setting: (30 °C) -0.447 ± 0.075; (37 °C) -0.466 ± 0.11. For the sequence UGGAAGCAAUAUUACGCCUG, the “self-splicing fitness (ln)” value is -0.491 ± 0.083 (30 °C) and -0.15 ± 0.099 (37 °C). Turning to UGCAAGCAAUAUUACGGGUA, the “self-splicing fitness (ln)” value reads like this: (30 °C) -0.497 ± 0.084; (37 °C) 0.0384 ± 0.095. Consider CGUAAGCAAUAUUACGUGAU, for which the “self-splicing fitness (ln)” value is, setting by setting: (30 °C) -3.93 ± 0.31; (37 °C) -2.57 ± 0.24. With GAGGAGCAAUAUUACGGGUC, the “self-splicing fitness (ln)” value is -2.98 ± 0.17 (30 °C) and -3.24 ± 0.32 (37 °C).

Turning to GAGUAGCAAUAUUACGGUCA, the “self-splicing fitness (ln)” value was -0.51 ± 0.12 (30 °C) and 0.0478 ± 0.12 (37 °C). As to UUUAAGCAAUAUUACGUACC, under “30 °C”, the “self-splicing fitness (ln)” value was -2.05 ± 0.39. With CCCUAGCAAUAUUACGUUAC, the “self-splicing fitness (ln)” value was -4.52 ± 0.29 (30 °C) and -2.53 ± 0.27 (37 °C). For the sequence AUAGAGCAAUAUUACGCCGG, the “self-splicing fitness (ln)” value by setting is: (30 °C) -2.52 ± 0.31; (37 °C) -1.94 ± 0.47. On the same counts, the results for AUAGAGCAAUAUUACGUGUA are -3.02 ± 0.18 and -1.17 ± 0.16. Regarding GACCAGCAAUAUUACGGAUC, the “self-splicing fitness (ln)” value runs as follows: (30 °C) -1.45 ± 0.095; (37 °C) -0.489 ± 0.12. With UGAUAGCAAUAUUACGAAAG, the “self-splicing fitness (ln)” value by setting is: (30 °C) -3 ± 0.14; (37 °C) -1.67 ± 0.15. On the same counts, the results for AUUAAGCAAUAUUACGGUCA are -1.4 ± 0.14 and -0.528 ± 0.14.

Source of the values: the supplement of paper PMC7877785.
